# Experimental data from patent US20090192084A1.
# Tests used:
# VCIP135 (human) = biological target: T1, VCIP135 (human) (UniProt Q96JH7); experiment: Flag co-IP, 293 cells, MudPIT MS
# T1 sequence (looked up): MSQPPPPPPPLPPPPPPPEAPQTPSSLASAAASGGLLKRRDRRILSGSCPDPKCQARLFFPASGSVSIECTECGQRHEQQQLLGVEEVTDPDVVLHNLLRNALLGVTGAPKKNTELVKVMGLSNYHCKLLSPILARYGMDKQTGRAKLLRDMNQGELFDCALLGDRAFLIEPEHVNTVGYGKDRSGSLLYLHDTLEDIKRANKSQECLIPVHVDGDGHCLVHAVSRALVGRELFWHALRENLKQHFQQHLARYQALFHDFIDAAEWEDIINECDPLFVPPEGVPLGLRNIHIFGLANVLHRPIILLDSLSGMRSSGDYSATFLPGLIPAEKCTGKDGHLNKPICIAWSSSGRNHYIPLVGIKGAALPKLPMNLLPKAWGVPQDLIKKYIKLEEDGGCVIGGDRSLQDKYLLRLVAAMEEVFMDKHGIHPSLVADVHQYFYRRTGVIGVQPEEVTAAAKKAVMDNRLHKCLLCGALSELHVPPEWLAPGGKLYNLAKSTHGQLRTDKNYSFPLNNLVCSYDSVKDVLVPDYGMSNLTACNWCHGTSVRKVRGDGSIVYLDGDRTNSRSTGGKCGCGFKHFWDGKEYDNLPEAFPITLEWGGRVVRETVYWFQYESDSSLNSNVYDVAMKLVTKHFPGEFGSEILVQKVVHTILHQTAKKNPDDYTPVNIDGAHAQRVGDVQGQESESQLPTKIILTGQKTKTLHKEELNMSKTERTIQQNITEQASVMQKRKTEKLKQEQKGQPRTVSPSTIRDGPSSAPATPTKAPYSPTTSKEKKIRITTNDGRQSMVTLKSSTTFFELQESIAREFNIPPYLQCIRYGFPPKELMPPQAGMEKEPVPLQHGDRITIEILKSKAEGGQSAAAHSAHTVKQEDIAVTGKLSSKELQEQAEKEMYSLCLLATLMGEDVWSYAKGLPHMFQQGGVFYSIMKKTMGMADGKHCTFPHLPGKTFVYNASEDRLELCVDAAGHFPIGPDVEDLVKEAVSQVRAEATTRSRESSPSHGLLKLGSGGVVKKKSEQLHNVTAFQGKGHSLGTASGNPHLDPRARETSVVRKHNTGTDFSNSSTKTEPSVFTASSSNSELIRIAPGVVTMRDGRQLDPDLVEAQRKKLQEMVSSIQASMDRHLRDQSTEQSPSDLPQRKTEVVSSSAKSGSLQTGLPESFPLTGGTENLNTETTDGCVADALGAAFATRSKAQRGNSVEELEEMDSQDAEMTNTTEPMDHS
# Elongin C (human) = Elongin C (human) (UniProt Q15369); experiment: Flag co-IP, MudPIT MS, DMSO
# [1] = biological target: Galectin-3 binding protein. LG3BP (human) (UniProt Q08380); experiment: Flag co-IP, MudPIT MS, DMSO
# [2] = biological target: WD repeat protein Anti homolog. WDR68 (human) (UniProt P61962); experiment: Flag co-IP, MudPIT MS, DMSO
# [3] = biological target: Kelch repeat and BTB domain-containing protein 7, KBTB7 (human) (UniProt Q8WVZ9); experiment: Flag co-IP, MudPIT MS, MG132
# Cullin 4A (human) = Cullin 4A (human) (UniProt Q13619); experiment: Flag co-IP, MudPIT MS, DMSO
# [4] = biological target: Bromodomain and WD-repeat domain-containing protein 3, BRWD3 (human) (UniProt Q6RI45); experiment: Flag co-IP, MudPIT MS, DMSO
# [5] = biological target: Bromodomain and WD-repeat domain-containing protein 2, WDR 1 I (human) (UniProt Q9BZH6); experiment: Flag co-IP, MudPIT MS, DMSO
# Cullin 4B (human) = Cullin 4B (human) (UniProt Q13620); experiment: Flag co-IP, MudPIT MS, DMSO
# [6] = biological target: Kelch domain-containing protein 2, KLDC2 (human) (UniProt Q9Y2U9); experiment: Flag co-IP, MudPIT MS, DMSO
# [7] = biological target: Bromodomain and WD-repeat domain-containing protein 1. WDR9 (human) (UniProt Q9NSI6); experiment: Flag co-IP, MudPIT MS, DMSO
# Elongin B (human) = Elongin B (human) (UniProt Q15370); experiment: Flag co-IP, MudPIT MS, DMSO
# SKP1 (human) = SKP1 (human) (UniProt P63208); experiment: Flag co-IP, MudPIT MS, DMSO
# [8] = biological target: BTB/POZ domain-containing protein 2. BTBD2 (human) (UniProt Q9BX70); experiment: Flag co-IP, MudPIT MS, DMSO
# [9] = biological target: Ubiquitin conjugation factor E4 B, UBE4B (Ufd2ortholog) (human) (UniProt O95155); experiment: Flag co-IP, MudPIT MS, DMSO
# Cullin 1 (human) = Cullin 1 (human) (UniProt Q13616); experiment: Flag co-IP, MudPIT MS, DMSO
# [10] = biological target: Kelch repeat and BTB domain-containing protein 7, KBTB7 (human) (UniProt Q8WVZ9); experiment: Flag co-IP, MudPIT MS, DMSO
# [11] = biological target: RING finger protein 12. RLIM (human) (UniProt Q9NVW2); experiment: Flag co-IP, MudPIT MS, DMSO
# RING finger protein 12. RLIM (human), sequence (Q9NVW2 whole entry): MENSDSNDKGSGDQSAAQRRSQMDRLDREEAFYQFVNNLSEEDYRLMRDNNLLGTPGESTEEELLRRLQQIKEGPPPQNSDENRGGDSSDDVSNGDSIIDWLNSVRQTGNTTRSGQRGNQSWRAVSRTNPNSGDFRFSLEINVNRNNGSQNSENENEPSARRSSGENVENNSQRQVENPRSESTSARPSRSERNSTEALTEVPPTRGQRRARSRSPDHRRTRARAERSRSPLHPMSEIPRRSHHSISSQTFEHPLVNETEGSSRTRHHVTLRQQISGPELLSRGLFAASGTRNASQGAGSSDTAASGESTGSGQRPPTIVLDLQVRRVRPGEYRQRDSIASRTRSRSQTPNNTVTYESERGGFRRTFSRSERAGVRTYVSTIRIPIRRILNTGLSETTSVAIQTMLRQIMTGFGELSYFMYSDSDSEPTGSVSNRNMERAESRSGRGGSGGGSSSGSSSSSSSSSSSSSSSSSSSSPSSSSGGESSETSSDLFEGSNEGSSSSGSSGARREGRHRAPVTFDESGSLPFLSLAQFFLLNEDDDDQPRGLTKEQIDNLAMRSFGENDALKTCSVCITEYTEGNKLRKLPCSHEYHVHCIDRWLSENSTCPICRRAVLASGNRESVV
# SKP1 (human), sequence (P63208 2-163 limits assumed): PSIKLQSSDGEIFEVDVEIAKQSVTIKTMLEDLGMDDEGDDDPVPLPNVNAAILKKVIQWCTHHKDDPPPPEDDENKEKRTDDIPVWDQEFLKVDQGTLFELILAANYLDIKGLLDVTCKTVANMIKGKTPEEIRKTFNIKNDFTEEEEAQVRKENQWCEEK
# WD repeat protein Anti homolog. WDR68 (human), sequence (P61962 whole entry, the tested form may be a part): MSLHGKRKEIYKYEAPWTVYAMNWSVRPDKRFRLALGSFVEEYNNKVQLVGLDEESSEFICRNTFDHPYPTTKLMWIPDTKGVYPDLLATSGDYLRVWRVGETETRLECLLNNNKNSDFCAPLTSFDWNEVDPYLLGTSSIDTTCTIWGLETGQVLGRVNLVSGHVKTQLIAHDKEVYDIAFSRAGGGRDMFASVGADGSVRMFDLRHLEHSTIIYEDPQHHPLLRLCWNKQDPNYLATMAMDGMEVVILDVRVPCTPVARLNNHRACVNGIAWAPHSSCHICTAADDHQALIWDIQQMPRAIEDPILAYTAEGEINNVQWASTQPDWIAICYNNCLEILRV
# Kelch repeat and BTB domain-containing protein 7, KBTB7 (human), sequence (Q8WVZ9 whole entry, the tested form may be a part): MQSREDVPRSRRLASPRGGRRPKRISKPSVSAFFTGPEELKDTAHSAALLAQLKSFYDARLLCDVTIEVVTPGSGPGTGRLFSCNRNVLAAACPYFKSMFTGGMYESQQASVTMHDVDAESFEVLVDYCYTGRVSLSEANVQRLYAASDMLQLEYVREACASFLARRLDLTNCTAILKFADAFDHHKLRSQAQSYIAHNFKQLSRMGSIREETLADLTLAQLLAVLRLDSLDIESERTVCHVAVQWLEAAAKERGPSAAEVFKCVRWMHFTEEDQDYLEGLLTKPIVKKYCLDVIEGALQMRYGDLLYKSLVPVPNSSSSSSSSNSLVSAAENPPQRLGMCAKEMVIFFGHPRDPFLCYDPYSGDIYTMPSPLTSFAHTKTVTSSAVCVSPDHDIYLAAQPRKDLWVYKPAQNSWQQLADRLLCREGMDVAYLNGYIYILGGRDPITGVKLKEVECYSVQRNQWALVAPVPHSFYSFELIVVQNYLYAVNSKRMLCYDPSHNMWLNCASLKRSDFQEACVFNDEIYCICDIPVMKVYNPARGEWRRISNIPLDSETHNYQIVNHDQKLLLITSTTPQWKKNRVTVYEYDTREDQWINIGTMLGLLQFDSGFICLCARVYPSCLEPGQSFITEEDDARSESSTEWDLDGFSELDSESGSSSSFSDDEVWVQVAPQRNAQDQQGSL
# Bromodomain and WD-repeat domain-containing protein 1. WDR9 (human), sequence (Q9NSI6 other isoform, or with tags, fused parts or gaps limits assumed): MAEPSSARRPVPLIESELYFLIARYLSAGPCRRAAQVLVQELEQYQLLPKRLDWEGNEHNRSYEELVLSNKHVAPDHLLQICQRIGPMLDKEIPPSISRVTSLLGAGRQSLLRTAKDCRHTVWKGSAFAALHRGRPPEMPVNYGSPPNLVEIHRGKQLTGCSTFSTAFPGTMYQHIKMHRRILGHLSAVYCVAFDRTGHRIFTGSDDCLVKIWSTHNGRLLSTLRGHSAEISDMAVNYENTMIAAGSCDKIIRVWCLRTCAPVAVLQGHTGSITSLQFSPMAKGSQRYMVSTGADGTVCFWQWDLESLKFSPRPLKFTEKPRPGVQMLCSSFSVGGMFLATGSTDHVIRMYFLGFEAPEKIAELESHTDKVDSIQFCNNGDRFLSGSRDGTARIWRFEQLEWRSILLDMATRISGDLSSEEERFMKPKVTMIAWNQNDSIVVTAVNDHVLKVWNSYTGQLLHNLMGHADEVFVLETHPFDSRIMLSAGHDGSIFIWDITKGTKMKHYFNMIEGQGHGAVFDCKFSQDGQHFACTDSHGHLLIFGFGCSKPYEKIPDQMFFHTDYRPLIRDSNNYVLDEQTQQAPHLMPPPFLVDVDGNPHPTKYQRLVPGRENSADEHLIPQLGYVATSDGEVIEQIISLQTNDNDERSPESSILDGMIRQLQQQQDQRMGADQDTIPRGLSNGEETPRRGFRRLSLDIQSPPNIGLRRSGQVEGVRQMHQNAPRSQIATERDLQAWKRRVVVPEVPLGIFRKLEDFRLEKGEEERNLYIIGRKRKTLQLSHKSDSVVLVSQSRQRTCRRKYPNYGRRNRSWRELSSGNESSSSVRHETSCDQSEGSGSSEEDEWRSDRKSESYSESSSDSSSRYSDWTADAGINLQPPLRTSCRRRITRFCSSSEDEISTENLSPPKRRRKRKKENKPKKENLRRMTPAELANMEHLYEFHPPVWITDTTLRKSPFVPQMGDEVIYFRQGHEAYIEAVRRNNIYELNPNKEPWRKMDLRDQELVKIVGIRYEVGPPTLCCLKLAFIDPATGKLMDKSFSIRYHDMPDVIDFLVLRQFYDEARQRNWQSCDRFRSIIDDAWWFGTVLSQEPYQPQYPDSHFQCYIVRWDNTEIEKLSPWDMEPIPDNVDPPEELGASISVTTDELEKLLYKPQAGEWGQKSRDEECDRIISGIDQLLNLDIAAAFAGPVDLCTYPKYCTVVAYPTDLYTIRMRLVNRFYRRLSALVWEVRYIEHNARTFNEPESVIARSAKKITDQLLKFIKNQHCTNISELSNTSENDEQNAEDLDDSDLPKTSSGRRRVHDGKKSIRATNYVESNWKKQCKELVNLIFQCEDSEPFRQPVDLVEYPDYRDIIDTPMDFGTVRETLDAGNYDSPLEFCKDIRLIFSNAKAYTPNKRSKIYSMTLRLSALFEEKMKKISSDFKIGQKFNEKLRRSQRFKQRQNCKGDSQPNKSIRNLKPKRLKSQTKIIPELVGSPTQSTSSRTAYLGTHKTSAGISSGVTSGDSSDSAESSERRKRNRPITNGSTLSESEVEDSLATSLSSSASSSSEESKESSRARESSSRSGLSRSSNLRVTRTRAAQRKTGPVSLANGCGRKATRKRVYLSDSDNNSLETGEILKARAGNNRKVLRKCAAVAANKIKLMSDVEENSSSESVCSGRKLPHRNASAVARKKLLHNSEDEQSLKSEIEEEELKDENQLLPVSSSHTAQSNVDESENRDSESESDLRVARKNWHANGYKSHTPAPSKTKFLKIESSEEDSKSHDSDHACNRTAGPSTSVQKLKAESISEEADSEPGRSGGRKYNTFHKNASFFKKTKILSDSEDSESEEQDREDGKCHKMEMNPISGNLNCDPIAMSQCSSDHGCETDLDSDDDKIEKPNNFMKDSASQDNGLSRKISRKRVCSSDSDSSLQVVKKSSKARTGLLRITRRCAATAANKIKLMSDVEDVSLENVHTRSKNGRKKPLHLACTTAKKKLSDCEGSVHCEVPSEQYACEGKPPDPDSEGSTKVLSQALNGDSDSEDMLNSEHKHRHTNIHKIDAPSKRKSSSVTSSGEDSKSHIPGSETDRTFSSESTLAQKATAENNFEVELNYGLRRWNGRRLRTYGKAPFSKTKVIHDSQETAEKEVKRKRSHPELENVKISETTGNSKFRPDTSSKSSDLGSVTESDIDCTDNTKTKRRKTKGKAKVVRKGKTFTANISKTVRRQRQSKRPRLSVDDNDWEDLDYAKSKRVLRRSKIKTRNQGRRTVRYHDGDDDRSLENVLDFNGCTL
# Cullin 4A (human), sequence (Q13619 whole entry, the tested form may be a part): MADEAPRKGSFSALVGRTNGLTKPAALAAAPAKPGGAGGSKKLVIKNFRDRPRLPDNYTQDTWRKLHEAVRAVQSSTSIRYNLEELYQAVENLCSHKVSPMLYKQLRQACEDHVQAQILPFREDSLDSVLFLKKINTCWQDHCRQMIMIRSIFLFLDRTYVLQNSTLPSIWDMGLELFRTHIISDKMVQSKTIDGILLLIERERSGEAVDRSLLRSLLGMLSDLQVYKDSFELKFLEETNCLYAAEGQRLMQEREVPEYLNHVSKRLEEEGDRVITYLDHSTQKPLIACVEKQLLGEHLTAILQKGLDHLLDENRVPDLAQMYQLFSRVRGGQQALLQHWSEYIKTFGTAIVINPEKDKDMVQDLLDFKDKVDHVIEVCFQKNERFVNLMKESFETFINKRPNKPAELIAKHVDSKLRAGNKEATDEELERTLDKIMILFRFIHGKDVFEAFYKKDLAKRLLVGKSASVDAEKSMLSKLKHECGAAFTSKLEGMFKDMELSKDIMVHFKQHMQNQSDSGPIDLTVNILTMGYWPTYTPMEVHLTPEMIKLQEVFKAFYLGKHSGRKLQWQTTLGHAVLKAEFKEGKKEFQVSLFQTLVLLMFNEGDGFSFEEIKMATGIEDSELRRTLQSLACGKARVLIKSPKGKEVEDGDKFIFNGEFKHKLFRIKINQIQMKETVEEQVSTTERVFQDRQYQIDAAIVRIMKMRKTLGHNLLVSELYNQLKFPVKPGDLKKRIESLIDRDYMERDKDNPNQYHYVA
# Elongin C (human), sequence (Q15369 whole entry): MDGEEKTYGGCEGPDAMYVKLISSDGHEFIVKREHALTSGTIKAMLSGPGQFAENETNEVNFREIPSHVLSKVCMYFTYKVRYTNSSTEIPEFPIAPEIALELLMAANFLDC
substance,measurement,setting,value
Flag-UBXD8 (from UniProt Q96CS3 1-445),sequence count,VCIP135 (human),11
same,sequence coverage,VCIP135 (human),14.1%
same,spectrum count,VCIP135 (human),12
same,abundance factor (AF),Elongin C (human),7
same,sequence count,Elongin C (human),2
same,spectrum count,Elongin C (human),5
same,abundance factor (AF),[1],0.8
same,spectrum count,[1],3
same,abundance factor (AF),[2],0.9
same,sequence count,[2],2
same,spectrum count,[2],2
Flag-UBXD7 (from UniProt O94888 1-489),abundance factor (AF),[3],1
same,sequence count,[3],3
same,spectrum count,[3],3
same,abundance factor (AF),Cullin 4A (human),9.8
same,sequence count,Cullin 4A (human),5
same,spectrum count,Cullin 4A (human),6
same,abundance factor (AF),[4],1.4
same,sequence count,[4],2
same,spectrum count,[4],2
same,abundance factor (AF),[5],2.1
same,sequence count,[5],2
same,spectrum count,[5],2
same,sequence count,Cullin 4B (human),7
same,spectrum count,Cullin 4B (human),9
same,abundance factor (AF),[6],9.3
same,sequence count,[6],2
same,spectrum count,[6],3
same,abundance factor (AF),[7],2.2
same,sequence count,[7],3
same,spectrum count,[7],4
same,abundance factor (AF),Elongin B (human),16
same,sequence count,Elongin B (human),2
same,spectrum count,Elongin B (human),2
same,abundance factor (AF),SKP1 (human),30.7
same,sequence count,SKP1 (human),3
same,spectrum count,SKP1 (human),4
Flag-SAKS1 (from UniProt Q04323 1-297),sequence count,VCIP135 (human),2
same,sequence coverage,VCIP135 (human),2.9%
same,spectrum count,VCIP135 (human),2
same,abundance factor (AF),[8],2.9
same,sequence count,[8],2
same,spectrum count,[8],2
same,abundance factor (AF),[9],1.1
same,sequence count,[9],2
same,spectrum count,[9],2
same,abundance factor (AF),Cullin 1 (human),6.5
same,sequence count,Cullin 1 (human),5
same,spectrum count,Cullin 1 (human),7
same,abundance factor (AF),[10],2.1
same,sequence count,[10],2
same,spectrum count,[10],2
same,abundance factor (AF),[11],3.5
same,sequence count,[11],2
same,spectrum count,[11],3
